From US12252531B2, “Methods of screening for high-affinity, isoform-selective TGFβ1 inhibitors” (Scholar Rock, Inc., priority 2018, dated 2025)

What was measured:
[1] = Safety/toxicology study in rats; conditions: rat, in vivo
Source text: Animals were sacrificed on Day 29 and necropsies performed.
Both halves were submitted for embedding.

[2] = system: TGFβ downstream tonic signaling; conditions: non-diseased rat BAL; cited from earlier work
[3] = in vivo, cited from earlier work
[4] = system: intratumoral immune cells in MBT2 tumors; assay: MBT2 tumor immune contexture (flow cytometry, IHC, qPCR); assay type: in vivo, mouse; conditions: MBT2 tumors (FIG. 30F)
Method: Each study group contained 12 mice with MBT2 tumors as described herein. Ab6-treatment group received the antibody weekly, on day 1 and day 8, at 10 mg/kg. Anti-PD1 treatment group was treated biweekly at 10 mg/kg per injection, on days 1, 4, 8 and 11, total of 20 mg/kg per week. […] On day 13, tumors were collected from the mice as shown above.
Flow cytometric analysis: Tumor-associated immune cell subsets were also analyzed by tumor flow cytometry in MBT-2 tumors. Briefly, tumors were excised and weighed prior to dissociation using the Tumor Dissociation Kit for gentleMACS (Miltenyi). Samples were filtered through a 70 μm cell strainer to remove any aggregates. […] Flow cytometry was performed on a Attune NxT (ThermoFisher) and analyzed with FlowJo (BD Bioscience).
For immunohistochemical analysis, tumors from six animals were cut in halves and fixed. […] FIG. 30E provides the quantitation of the IHC data, shown as % of CD8-positive cells of total nuclei. […]

[5] = biological target: Matrix-associated proTGFb1 (hLTBP1, hLTBP3); assay: BLI (OCTET), average over matrix-associated complexes; assay type: binding, human; conditions: average KD of (B) and (C), read-out: (D) ECM AVRG
Source text: (§1) Column (A) of the table lists monoclonal antibodies with discrete amino acid sequences. […] Columns (B), (D), (E) and (F) provide affinities of each of the listed antibodies, measured in KD. […] Average KD values of (B) and (C) are shown in the corresponding column (D), which collectively represents affinities of the antibodies to ECM- or matrix-associated proTGFβ1 complexes. Similarly, Average KD values of (E) and (F) are shown in the corresponding column (G), which collectively represents affinities of the antibodies to cell-surface or cell-associated proTGFβ1 complexes. Finally, relative ratios between the average KD values from columns (D) and (G) are expressed as “fold bias” in column (H). Thus, the greater the number of column (H) is, the greater bias exists for the particular antibody, when comparing binding preferences of the antibody for matrix-associated complexes and cell-surface complexes. This is one way of quantitatively representing and comparing inherent bias of antibodies to their target complexes. Such analyses may be useful in guiding the selection process for a candidate antibody for particular therapeutic use.
(§2) The concept of “uniformity” or lack of bias is further illustrated in Table 8. Average KD values between the two matrix-associated and cell-associated complexes are calculated, respectively (see columns (D) and (G)). These average KD values can then be used to ask whether bias in binding activities exists between complexes associated with matrix vs. complexes associated with cell surface (e.g., immune cells). Bias may be expressed as “fold-difference”in the average KD values, as illustrated in Table 8.

[6] = system: Cell-associated proTGFβ1 (hGARP, hLRRC33); assay: MSD-SET, average over cell-associated complexes; assay type: binding, human; conditions: average of (E) and (F), read-out: (G) Cell AVRG
Source text: as §1
(§3) Solution equilibrium titration (“SET”) is an assay whereby binding between two molecules (such as an antigen and an antibody that binds the antigen) can be measured at equilibrium in a solution. For example, Meso-Scale Discovery (“MSD”)-based SET, or MSD-SET, is a useful mode of determining dissociation constants for particularly high-affinity protein-protein interactions at equilibrium (see, for example: Ducata et al. (2015) J Biomolecular Screening 20(10): 1256-1267). The SET-based assays are particularly useful for determining KD values of antibodies with sub-nanomolar (e.g., picomolar) affinities.

[7] = biological target: Matrix-associated proTGFβ1 (hLTBP1, hLTBP3); assay: MSD-SET, average over matrix-associated complexes; assay type: binding, human; conditions: average of (B) and (C), read-out: (D) ECM AVRG
Source text: as §1, §3

[8] = system: Cell-associated proTGFb1 (hGARP, hLRRC33); assay: BLI (OCTET), average over cell-associated complexes; assay type: binding, human; conditions: average KD of (E) and (F), read-out: (G) Cell AVRG
Source text: as §1, §2

[9] = system: hLTBP1-proTGFβ1, hLTBP3-proTGFβ1, hGARP-proTGFβ1 and hLRRC33-proTGFβ1; assay: MSD-SET, binding profile and bias across the four human LLCs; conditions: ratio of average KD cell-associated / matrix-associated
Source text: Solution Equilibrium Titration (SET): The SET is an assay whereby binding between two molecules (such as an antigen and an antibody that binds the antigen) can be measured at equilibrium in a solution. For example, Meso-Scale Discovery (“MSD”)-based SET, or MSD-SET, is a useful mode of determining dissociation constants for particularly high-affinity protein-protein interactions at equilibrium, such as picomolar-affinity antibodies binding to their antigens (see, for example: Ducata et al. (2015) J Biomolecular Screening 20(10): 1256-1267). The SET-based assays are particularly useful for determining KD values of antibodies with sub-nanomolar (e.g., picomolar) affinities.
as §3
For solution equilibrium titration-based binding assays, protein complexes that comprise one of the presenting molecules such as those shown above may be employed as antigen (presenting molecule-TGFβ1 complex, or an LLC). Test antibodies are allowed to form antigen-antibody complex in solution. Antigen-antibody reaction mixtures are incubated to allow an equilibrium to be reached; the amount of the antigen-antibody complex present in the assay reactions can be measured by suitable means well known in the art. As compared to BLI-based assays, SET-based assays are less affected by on/off rates of the antigen-antibody complex, allowing sensitive detection of very high affinity interactions.

[10] = system: LTBP1-proTGFβ1, LTBP3-proTGFβ1, GARP-proTGFβ1 and LRRC33-proTGFβ1 complexes; assay: BLI (OCTET), binding profile and bias across the four complexes; parameters: species or system human; conditions: ratio of average KD cell-associated / matrix-associated
Source text: as §1, §2

Row | Molecule | Kd [5] [nM] | Kd [6] [nM] | Kd [7] [nM] | Kd [8] [nM] | (H) G/D (fold bias) [9] [fold] | (H) G/D (fold bias) [10] [fold] | also measured
1 | c1ccc(-c2nn3c(c2-c2ccnc4cc(OCCN5CCOCC5)ccc24)CCC3)nc1 [LY2109761] | – | – | – | – | – | – | bone findings [1]: macroscopic abnormally shaped sternum and microscopic increased thickness of the hypertrophic zone in the endplate of the sternum and physis of the femur and tibia; incidence/severity of bone findings compared with pan-TGFβ antibody ([1]; po): higher incidence and/or severity; inhibition of TGFβ downstream tonic signaling [2]: shown to inhibit TGFβ downstream tonic signaling
2 | GC1008: human analog of 1D11, pan-TGFβ antibody | – | – | – | – | – | – | Exposure: DN Cmax ([3]; human): DN Cmax~(350 ng/mL)mg; previously reported adverse events (CTCAE grade) [3]: leukocytosis (grade 3), fatigue (grade 3), hypoxia (grade 3), asystole (grade 5), leukopenia (grade 1), recurrent, transient, tender erythematous, nodular skin lesions, suppurative dermatitis, and herpes zoster
3 | Ab6-mIgG1: chimeric antibody with the human V domains of Ab6 fused to mouse IgG1/kappa constant domains (protein) heavy chain: EVQLVESGGGLVQPGGSLRLSCTASGFTFSSFSMDWVRQAPGKGLEWVSYISPSADTIYYADSVKGRFTISRDNAKNTLYLQMNSLRAEDTAVYYCARGVLDYGDMLMPWGQGTLVTVSS light chain: DIQMTQSPSSLSASVGDRVTITCQASQDITNYLNWYQQKPGKAPKLLIYDASNLETGVPSRFSGSGSGTDFTFTISSLQPEDIATYYCQQADNHPPWTFGGGTKVEIK | – | – | – | – | – | – | phospho-SMAD3 staining near tumor vascular endothelium (IHC) [4]: much diminished
4 | Ab32: proTGFβ1 antibody; VH SEQ ID NO: 140, VL SEQ ID NO: 15 (antibody, V domains shown) VH: EVQLVESGGGLVQPGGSLRLSCAASGFTFSSFSMNWVRQAPGKGLEWVSYISPSADTIYYADSVKGRFTISRDNAKNTLYLQMNSLRAEDTAVYYCARGVWDMGDMLDPWGQGTLVTVSS VL: DIQMTQSPSSLSASVGDRVTITCQASQDITNYLNWYQQKPGKAPKLLIYDASNLETGVPSRFSGSGSGTDFTFTISSLQPEDIATYYCQQADNHPPWTFGGGTKVEIK | 0.242 | 0.051 | 0.032 | 0.597 | 1.60 | 2.467 | –
5 | Ab33: proTGFβ1 antibody; VH SEQ ID NO: 141, VL SEQ ID NO: 15 (antibody, V domains shown) VH: EVQLVESGGGLVQPGGSLRLSCAASGFTFSSFSMNWVRQAPGKGLEWVSYISPSADTIYYADSVKGRFTISRDNAKNTLYLQMNSLRAEDTAVYYCAHGVLDYGDMLDPWGQGTLVTVSS VL: DIQMTQSPSSLSASVGDRVTITCQASQDITNYLNWYQQKPGKAPKLLIYDASNLETGVPSRFSGSGSGTDFTFTISSLQPEDIATYYCQQADNHPPWTFGGGTKVEIK | 0.145 | 0.027 | 0.009 | 0.302 | 3.00 | 2.083 | –
